Data taken from patent US20190382738A1.

Tests used:
[1] = molecular target: T1, B-Raf kinase, P15056; assay: isothermal titration calorimetry
T1 chain: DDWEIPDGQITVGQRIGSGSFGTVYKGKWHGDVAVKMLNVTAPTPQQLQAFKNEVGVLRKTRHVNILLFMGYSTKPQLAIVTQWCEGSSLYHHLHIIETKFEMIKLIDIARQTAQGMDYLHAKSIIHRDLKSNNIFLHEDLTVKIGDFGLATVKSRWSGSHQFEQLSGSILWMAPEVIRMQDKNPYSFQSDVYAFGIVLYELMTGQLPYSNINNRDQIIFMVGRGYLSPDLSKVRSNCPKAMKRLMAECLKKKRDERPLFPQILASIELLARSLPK

[2] = molecular target: T1, B-Raf kinase, P15056; assay: intrinsic fluorescence titration, column head Kd (ITF) (µM)

B1: Peptide corresponding to SEQ ID NO: 8 (peptide)
peptide: GVLRKARHVNILLFMGYST
modifications: not checked
ΔS [1]: -28.4 J/mol·K

B2: 6257 (peptide)
peptide: LRKTRHVNI
modifications: not checked
Kd [2]: 20 nM
